Publication PMC4379099 (PLoS Pathogens, 2015)

Assays:
MAP kinases = type: cell-based, rice
[1] = biological target: EFR::GFP (full-length Arabidopsis EFR with a carboxyl-terminal GFP fusion, transgenic rice) (Arabidopsis) (UniProt C0LGT6)
[2] = biological target: T1, EFR::XA21::GFP chimeric receptor (EFR ectodomain 1-649 fused to XA21 651-1025, carboxyl-terminal GFP, transgenic rice) (Arabidopsis | rice (Oryza longistaminata)) (UniProt C0LGT6)
T1 sequence: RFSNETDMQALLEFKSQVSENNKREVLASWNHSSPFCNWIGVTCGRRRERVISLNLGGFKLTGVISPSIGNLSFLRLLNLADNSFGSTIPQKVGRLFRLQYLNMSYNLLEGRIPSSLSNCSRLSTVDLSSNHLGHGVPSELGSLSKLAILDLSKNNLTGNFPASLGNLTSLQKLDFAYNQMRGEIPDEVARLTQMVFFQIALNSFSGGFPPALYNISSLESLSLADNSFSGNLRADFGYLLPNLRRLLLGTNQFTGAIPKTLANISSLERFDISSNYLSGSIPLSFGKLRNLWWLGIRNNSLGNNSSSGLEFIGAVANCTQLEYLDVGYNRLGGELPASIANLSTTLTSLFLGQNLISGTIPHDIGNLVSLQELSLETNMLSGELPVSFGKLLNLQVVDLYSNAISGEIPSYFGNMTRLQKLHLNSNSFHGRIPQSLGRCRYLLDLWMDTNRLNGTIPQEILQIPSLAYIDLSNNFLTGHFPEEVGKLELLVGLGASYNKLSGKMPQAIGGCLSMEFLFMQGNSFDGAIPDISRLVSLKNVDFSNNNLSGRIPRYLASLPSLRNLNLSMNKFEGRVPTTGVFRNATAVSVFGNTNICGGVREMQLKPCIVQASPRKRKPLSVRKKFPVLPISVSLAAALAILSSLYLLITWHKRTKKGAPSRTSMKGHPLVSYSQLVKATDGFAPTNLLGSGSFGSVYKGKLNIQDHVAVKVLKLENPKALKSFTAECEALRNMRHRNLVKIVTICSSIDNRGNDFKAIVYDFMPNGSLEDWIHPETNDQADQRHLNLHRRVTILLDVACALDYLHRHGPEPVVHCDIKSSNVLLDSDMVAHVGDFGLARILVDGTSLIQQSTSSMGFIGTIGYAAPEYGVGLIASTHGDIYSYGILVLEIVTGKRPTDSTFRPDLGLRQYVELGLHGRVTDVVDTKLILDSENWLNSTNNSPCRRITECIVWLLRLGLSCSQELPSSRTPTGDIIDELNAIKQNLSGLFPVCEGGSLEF

Row | Substance | MAP kinase activation (phospho p44/42 bands, ~47 kDa and 40 kDa) (MAP kinases) | EC50 of ROS production in mature rice leaves (dose response curve) [1] [pM] | EC50 of ROS production in mature rice leaves (dose response curve) [2] [pM]
1 | chitin | increase of two distinct bands | – | –
2 | elf18_(E.coli) (from UniProt P0CE47 1-18) (peptide) | – | 300 | 300
